Measured values from PMC9482650, “Quantitative fragmentomics allow affinity mapping of interactomes” (Nature Communications, 2022).

T1: MPDZ_12, O75970
T1 sequence (O75970 1857-1958, limits assumed, looked up): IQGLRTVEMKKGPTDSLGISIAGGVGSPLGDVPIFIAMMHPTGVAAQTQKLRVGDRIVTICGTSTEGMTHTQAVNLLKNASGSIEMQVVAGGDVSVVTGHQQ

T2: NHERF3_4, Q5T2W1
T2 sequence (Q5T2W1 373-468, limits assumed, looked up): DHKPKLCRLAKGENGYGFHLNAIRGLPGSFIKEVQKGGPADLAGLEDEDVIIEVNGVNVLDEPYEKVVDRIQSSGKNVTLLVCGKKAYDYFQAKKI

T3: LNX2_3, Q8N448
T3 sequence (Q8N448 463-564, limits assumed, looked up): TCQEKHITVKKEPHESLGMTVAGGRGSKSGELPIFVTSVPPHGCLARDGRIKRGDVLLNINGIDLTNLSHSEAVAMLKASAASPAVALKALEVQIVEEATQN

T4: PDZD2_2, O15018
T4 sequence (O15018 329-429, limits assumed, looked up): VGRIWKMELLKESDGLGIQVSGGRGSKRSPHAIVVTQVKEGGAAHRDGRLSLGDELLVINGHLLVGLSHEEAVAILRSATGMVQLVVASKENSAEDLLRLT

T5: SHANK1, Q9Y566
T5 sequence (Q9Y566 658-767, limits assumed, looked up): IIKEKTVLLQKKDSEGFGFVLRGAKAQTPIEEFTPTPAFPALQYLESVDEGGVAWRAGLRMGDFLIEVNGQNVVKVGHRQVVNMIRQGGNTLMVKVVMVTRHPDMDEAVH

T6: RAPGEF6, Q8TEU7
T6 sequence (Q8TEU7 525-625, limits assumed, looked up): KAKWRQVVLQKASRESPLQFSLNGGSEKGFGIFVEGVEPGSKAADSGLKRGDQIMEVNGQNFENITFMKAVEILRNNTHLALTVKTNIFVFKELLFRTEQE

T7: LIN7A, O14910
T7 sequence (O14910 103-200, limits assumed, looked up): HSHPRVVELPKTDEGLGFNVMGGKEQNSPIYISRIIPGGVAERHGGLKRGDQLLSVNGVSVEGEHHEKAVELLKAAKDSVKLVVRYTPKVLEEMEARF

T8: APBA1_2, Q02410
T8 sequence (Q02410 742-832, limits assumed, looked up): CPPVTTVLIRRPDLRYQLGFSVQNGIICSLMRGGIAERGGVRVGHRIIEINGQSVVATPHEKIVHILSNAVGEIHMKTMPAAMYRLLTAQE

T9: CARD11, Q9BXL7
T9 sequence (Q9BXL7 662-765, limits assumed, looked up): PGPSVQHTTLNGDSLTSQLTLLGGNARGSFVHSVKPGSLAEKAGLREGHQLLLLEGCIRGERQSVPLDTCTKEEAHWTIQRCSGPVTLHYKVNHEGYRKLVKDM


Columns and labels:
Experiment in all cases: holdup assay
Set-up in all cases: key: below the threshold = too weak to quantify, mostly under pKd 3.1 to 4
Details in all cases: plain residues with an end cap or a label only (N-terminal biotin on a linker: ado-ado)
[1] = biological target: Inadl_3, Q8NI35
Sequence of Inadl_3, Q8NI35 (Q8NI35 359-469): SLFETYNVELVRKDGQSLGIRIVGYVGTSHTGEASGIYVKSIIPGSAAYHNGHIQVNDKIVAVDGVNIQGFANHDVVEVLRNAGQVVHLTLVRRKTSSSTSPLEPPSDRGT

[2] = biological target: HTRA2, O43464
Sequence of HTRA2, O43464 (O43464 355-458): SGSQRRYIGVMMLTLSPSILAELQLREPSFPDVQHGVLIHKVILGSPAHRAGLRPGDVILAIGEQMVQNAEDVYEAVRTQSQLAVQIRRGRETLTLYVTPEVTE

[3] = biological target: T1, MPDZ_12, O75970
[4] = biological target: T2, NHERF3_4, Q5T2W1
[5] = biological target: T3, LNX2_3, Q8N448
[6] = biological target: T4, PDZD2_2, O15018
[7] = biological target: T5, SHANK1, Q9Y566
[8] = biological target: GRASP, Q7Z6J2
Sequence of GRASP, Q7Z6J2 (Q7Z6J2 96-193): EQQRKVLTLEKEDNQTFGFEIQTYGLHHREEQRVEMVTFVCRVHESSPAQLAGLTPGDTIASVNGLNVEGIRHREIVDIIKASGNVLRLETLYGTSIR

[9] = biological target: DLG5_1, Q8TDM6
Sequence of DLG5_1, Q8TDM6 (Q8TDM6 617-713): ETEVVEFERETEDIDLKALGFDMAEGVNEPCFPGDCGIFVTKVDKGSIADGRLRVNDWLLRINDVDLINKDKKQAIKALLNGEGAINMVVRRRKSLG

[10] = biological target: SCRIB_1, Q14160
Sequence of SCRIB_1, Q14160 (Q14160 718-814): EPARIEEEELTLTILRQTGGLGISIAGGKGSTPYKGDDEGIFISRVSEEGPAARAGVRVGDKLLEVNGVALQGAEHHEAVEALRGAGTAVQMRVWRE

[11] = biological target: T6, RAPGEF6, Q8TEU7
[12] = biological target: GRIP2_6, Q9C0E4
Sequence of GRIP2_6, Q9C0E4 (Q9C0E4 648-740): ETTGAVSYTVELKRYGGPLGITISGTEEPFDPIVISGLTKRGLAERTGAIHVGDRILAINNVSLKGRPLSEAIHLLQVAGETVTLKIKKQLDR

[13] = biological target: DLG4_3, P78352
Sequence of DLG4_3, P78352 (P78352 306-403): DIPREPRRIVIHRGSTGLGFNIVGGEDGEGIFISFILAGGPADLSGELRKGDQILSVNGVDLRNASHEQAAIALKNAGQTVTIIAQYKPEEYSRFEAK

[14] = biological target: SNX27, Q96L92
[15] = biological target: Inadl_9, Q8NI35
Sequence of Inadl_9, Q8NI35 (Q8NI35 1530-1615): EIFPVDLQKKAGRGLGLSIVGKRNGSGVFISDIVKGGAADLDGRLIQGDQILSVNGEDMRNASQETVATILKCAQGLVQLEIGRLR

[16] = biological target: MAGI2_2, Q86UL8
Sequence of MAGI2_2, Q86UL8 (Q86UL8 410-522): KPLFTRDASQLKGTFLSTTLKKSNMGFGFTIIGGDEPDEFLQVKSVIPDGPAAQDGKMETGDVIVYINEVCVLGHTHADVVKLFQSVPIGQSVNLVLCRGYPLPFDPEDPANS

[17] = biological target: NHERF4_1, Q86UT5-2
Sequence of NHERF4_1, Q86UT5-2 (Q86UT5 other isoform, or with tags, fused parts or gaps): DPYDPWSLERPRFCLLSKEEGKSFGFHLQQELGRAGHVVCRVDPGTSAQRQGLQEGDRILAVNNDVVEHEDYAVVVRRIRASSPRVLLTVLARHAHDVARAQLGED

[18] = biological target: T7, LIN7A, O14910
[19] = biological target: MAGI1_1, Q96QZ7
Sequence of MAGI1_1, Q96QZ7 (Q96QZ7 1-106): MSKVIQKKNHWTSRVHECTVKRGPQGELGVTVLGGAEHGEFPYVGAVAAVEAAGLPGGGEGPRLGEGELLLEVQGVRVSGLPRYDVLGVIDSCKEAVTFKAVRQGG

[20] = biological target: GRIP2_4, Q9C0E4
Sequence of GRIP2_4, Q9C0E4 (Q9C0E4 446-548): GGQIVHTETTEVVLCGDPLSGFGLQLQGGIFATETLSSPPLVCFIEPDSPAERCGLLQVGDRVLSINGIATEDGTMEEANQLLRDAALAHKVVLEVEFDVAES

[21] = biological target: T8, APBA1_2, Q02410
[22] = biological target: T9, CARD11, Q9BXL7
[23] = biological target: LIMK2, P53671
Sequence of LIMK2, P53671 (P53671 143-248): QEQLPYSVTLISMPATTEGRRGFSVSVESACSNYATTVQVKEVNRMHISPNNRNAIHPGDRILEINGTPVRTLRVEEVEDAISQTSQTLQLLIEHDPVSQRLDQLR

[24] = biological target: LNX1_3, Q8TBB1
Sequence of LNX1_3, Q8TBB1 (Q8TBB1 500-596): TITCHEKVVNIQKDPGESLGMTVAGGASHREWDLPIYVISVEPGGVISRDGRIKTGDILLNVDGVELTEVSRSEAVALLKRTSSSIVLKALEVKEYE

[25] = biological target: TJP2_1, Q9UDY2
Sequence of TJP2_1, Q9UDY2 (Q9UDY2 24-128): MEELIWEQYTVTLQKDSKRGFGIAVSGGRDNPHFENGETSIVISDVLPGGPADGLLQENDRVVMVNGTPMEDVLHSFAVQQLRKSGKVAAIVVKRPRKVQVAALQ

[26] = biological target: NHERF2_2, Q15599
Sequence of NHERF2_2, Q15599 (Q15599 142-238): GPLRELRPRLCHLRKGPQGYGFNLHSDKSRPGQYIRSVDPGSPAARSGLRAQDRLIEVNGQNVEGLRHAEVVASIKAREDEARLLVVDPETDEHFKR

[27] = biological target: IL16_4, Q14005
Sequence of IL16_4, Q14005 (Q14005 1229-1329): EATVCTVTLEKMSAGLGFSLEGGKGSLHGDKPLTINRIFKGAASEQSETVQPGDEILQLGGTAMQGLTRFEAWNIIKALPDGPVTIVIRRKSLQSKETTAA

[28] = biological target: Inadl_8, Q8NI35
Sequence of Inadl_8, Q8NI35 (Q8NI35 1425-1530): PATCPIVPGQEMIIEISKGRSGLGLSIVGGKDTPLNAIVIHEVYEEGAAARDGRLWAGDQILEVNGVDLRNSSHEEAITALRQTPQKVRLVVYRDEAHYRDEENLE

[29] = biological target: PARD3_3, Q8TEW0
Sequence of PARD3_3, Q8TEW0 (Q8TEW0 582-685): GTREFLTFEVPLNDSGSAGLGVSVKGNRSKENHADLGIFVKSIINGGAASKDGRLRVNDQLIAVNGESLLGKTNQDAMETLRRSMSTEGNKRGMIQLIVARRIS

pKd [1] | pKd [2] | pKd [3] | pKd [4] | pKd [5] | pKd [6] | pKd [7] | pKd [8] | pKd [9] | pKd [10] | pKd [11] | pKd [12] | pKd [13] | pKd [14] | pKd [15] | pKd [16] | pKd [17] | pKd [18] | pKd [19] | pKd [20] | Binder | other results
below the threshold | below the threshold | below the threshold | below the threshold | below the threshold | 4.18 | 4.31 | below the threshold | below the threshold | below the threshold | 3.7 | below the threshold | below the threshold | 3.56 | below the threshold | below the threshold | below the threshold | below the threshold | below the threshold | below the threshold | SSGSTSSSRI [ADGRG1, Q9Y653] | pKd [21]: below the threshold; pKd [22]: below the threshold; pKd [23]: below the threshold; pKd [24]: below the threshold; pKd [25]: below the threshold; pKd [26]: 3.71; pKd [27]: 3.63; pKd [28]: 3.7; pKd [29]: below the threshold
4.51 | below the threshold | below the threshold | below the threshold | below the threshold | 4.22 | below the threshold | 3.78 | below the threshold | 4.28 | below the threshold | below the threshold | 4.01 | 5.23 | 3.55 | 4.73 | below the threshold | 3.58 | 3.52 | below the threshold | PKLMGVETVV [DUSP10, Q9Y6W6] | pKd [21]: 4.08; pKd [22]: below the threshold; pKd [23]: below the threshold; pKd [24]: below the threshold; pKd [25]: below the threshold; pKd [26]: below the threshold; pKd [27]: below the threshold; pKd [28]: 3.5; pKd [29]: 3.75
below the threshold | below the threshold | below the threshold | below the threshold | below the threshold | 4.01 | below the threshold | below the threshold | below the threshold | below the threshold | below the threshold | below the threshold | 3.75 | below the threshold | below the threshold | 3.67 | 3.79 | below the threshold | below the threshold | below the threshold | PEEGKKQSQC [GAGE12J, A6NER3] | pKd [21]: below the threshold; pKd [22]: below the threshold; pKd [23]: below the threshold; pKd [24]: below the threshold; pKd [25]: below the threshold; pKd [26]: 3.48; pKd [27]: 3.69; pKd [28]: 3.5; pKd [29]: below the threshold
